T1: FcγRIIb extracellular domain with C-terminal His tag (human, UniProt P31994 43-217)
T1 construct: extracellular domain; Soluble receptor expressed in FreeStyle293 cells, used as analyte in Biacore; also called FcgRIIb; 2b
T1 sequence (looked up): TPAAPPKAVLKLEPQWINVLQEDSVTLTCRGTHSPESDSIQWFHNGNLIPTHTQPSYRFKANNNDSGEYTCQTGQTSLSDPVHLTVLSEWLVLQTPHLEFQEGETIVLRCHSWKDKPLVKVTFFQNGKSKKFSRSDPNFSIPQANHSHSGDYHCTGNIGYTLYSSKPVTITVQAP

B1: GpH7-A5/GpH7-B3 variant S337_20W/GpL16-k0 (antibody, human IgG1, kappa)
heavy 1: not shown
heavy 2: not shown
light: DIVMTQSPLSLPVTPGEPASISCQASESLVHSNRNTYLHWYLQKPGQSPQLLIYKVSNRFSGVPDRFSGSGSGTDFTLKISRVEAEDVGVYYCSQNTHVPPTFGQGTKVEIERTVAAPSVFIFPPSDEQLKSGTASVVCLLNNFYPREAKVQWKVDNALQSGNSQESVTEQDSKDSTYSLSSTLTLSKADYEKHKVYACEVTHQGLSSPVTKSFNRGEC
notes: one H chain altered; also called He Ab S337_20W
B2: GpH7-A5/GpH7-B3 variant S337_10E/GpL16-k0 (antibody, human IgG1, kappa)
heavy 1: not shown
heavy 2: not shown
light: B1 light
notes: one H chain altered; also called He Ab S337_10E
B3: GpH7-A5/GpH7-B3 variant S337_14T/GpL16-k0 (antibody, human IgG1, kappa)
heavy 1: not shown
heavy 2: not shown
light: B1 light
notes: one H chain altered; also called He Ab S337_14T
B4: GpH7-A5/GpH7-B3 variant K326_07I/GpL16-k0 (antibody, human IgG1, kappa)
heavy 1: not shown
heavy 2: not shown
light: B1 light
notes: one H chain altered; also called He Ab K326_07I
B5: GpH7-A5/GpH7-B3 variant I336_03V/GpL16-k0 (antibody, human IgG1, kappa)
heavy 1: not shown
heavy 2: not shown
light: B1 light
notes: one H chain altered; also called He Ab I336_03V
B6: GpH7-A5/GpH7-B3 variant K334_09D/GpL16-k0 (antibody, human IgG1, kappa)
heavy 1: not shown
heavy 2: not shown
light: B1 light
notes: one H chain altered; also called He Ab K334_09D
B7: GpH7-A5/GpH7-B3 variant S267_02A/GpL16-k0 (antibody, human IgG1, kappa)
heavy 1: not shown
heavy 2: not shown
light: B1 light
notes: one H chain altered; also called He Ab S267_02A
B8: GpH7-A5/GpH7-B3 variant S298_14T/GpL16-k0 (antibody, human IgG1, kappa)
heavy 1: not shown
heavy 2: not shown
light: B1 light
notes: one H chain altered; also called He Ab S298_14T
B9: GpH7-A5/GpH7-B3 variant V266_08L/GpL16-k0 (antibody, human IgG1, kappa)
heavy 1: not shown
heavy 2: not shown
light: B1 light
notes: one H chain altered; also called He Ab V266_08L
B10: GpH7-A5/GpH7-B3 variant T335_07I/GpL16-k0 (antibody, human IgG1, kappa)
heavy 1: not shown
heavy 2: not shown
light: B1 light
notes: one H chain altered; also called He Ab T335_07I
B11: GpH7-A5/GpH7-B3 variant I336_02A/GpL16-k0 (antibody, human IgG1, kappa)
heavy 1: not shown
heavy 2: not shown
light: B1 light
notes: one H chain altered; also called He Ab I336_02A
B12: GpH7-A5/GpH7-B3 variant A330_07I/GpL16-k0 (antibody, human IgG1, kappa)
heavy 1: not shown
heavy 2: not shown
light: B1 light
notes: Heterodimerized anti-glypican-3 IgG1; mutation in the GpH7-B3 chain only; also called He Ab
B13: GpH7-A5/GpH7-B3 variant E333_02A/GpL16-k0 (antibody, human IgG1, kappa)
heavy 1: not shown
heavy 2: not shown
light: B1 light
notes: as for B12
B14: GpH7-A5/GpH7-B3 variant E333_01G/GpL16-k0 (antibody, human IgG1, kappa)
heavy 1: not shown
heavy 2: not shown
light: B1 light
notes: as for B12
B15: GpH7-A5/GpH7-B3 variant A330_04F/GpL16-k0 (antibody, human IgG1, kappa)
heavy 1: not shown
heavy 2: not shown
light: B1 light
notes: as for B12
B16: GpH7-A5/GpH7-B3 variant A330_03V/GpL16-k0 (antibody, human IgG1, kappa)
heavy 1: not shown
heavy 2: not shown
light: B1 light
notes: as for B12
B17: GpH7-A5/GpH7-B3 variant A330_15Y/GpL16-k0 (antibody, human IgG1, kappa)
heavy 1: not shown
heavy 2: not shown
light: B1 light
notes: as for B12
B18: GpH7-A5/GpH7-B3 variant A330_06M/GpL16-k0 (antibody, human IgG1, kappa)
heavy 1: not shown
heavy 2: not shown
light: B1 light
notes: as for B12
B19: GpH7-A5/GpH7-B3 variant A330_10E/GpL16-k0 (antibody, human IgG1, kappa)
heavy 1: not shown
heavy 2: not shown
light: B1 light
notes: as for B12
B20: GpH7-A5/GpH7-B3 variant A330_20W/GpL16-k0 (antibody, human IgG1, kappa)
heavy 1: not shown
heavy 2: not shown
light: B1 light
notes: as for B12
B21: GpH7-A5/GpH7-B3 variant A330_08L/GpL16-k0 (antibody, human IgG1, kappa)
heavy 1: not shown
heavy 2: not shown
light: B1 light
notes: as for B12
B22: GpH7-A5/GpH7-B3 variant A327_11K/GpL16-k0 (antibody, human IgG1, kappa)
heavy 1: not shown
heavy 2: not shown
light: B1 light
notes: as for B12

Legend:
[1] = target: FcγRIIIa extracellular domain with C-terminal His tag (human, UniProt P08637 17-208); experiment: SPR (Biacore), one H chain altered; HeCon Ab GpH7-A5/GpH7-B3/GpL16-k0 = 100
Target sequence in this assay (P08637 17-208): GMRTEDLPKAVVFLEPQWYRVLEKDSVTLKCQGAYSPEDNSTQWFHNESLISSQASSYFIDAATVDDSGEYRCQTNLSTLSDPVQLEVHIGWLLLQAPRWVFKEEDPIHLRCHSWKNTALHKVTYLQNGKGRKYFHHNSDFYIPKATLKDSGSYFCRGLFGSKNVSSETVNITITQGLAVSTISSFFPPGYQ

[2] = target: T2, FcγRIIIa extracellular domain with C-terminal His tag (human, UniProt P08637 17-208); experiment: SPR (Biacore); He/Con_3a divided by He/Con_2b (FcγRIIIa against FcγRIIb)
T2 construct: extracellular domain; also called FcgRIIIa; 3a
Protocol: (§1) The heterodimerized antibodies He Abs in which one of the H chains was introduced with an alteration were assayed for their binding activities to each activating FcγR and inhibitory FcγR according to the method described in Example 4. […] The activating FcγRs in FIGS. 26, 27, 28, and 29 are FcγRIa, FcγRIIa (R), FcγRIIa (H), and FcγRIIIa, respectively.
(§2) Analysis of interaction between objective antibody and the FcγR was carried out using Biacore T100 (GE Healthcare). HBS-EP+ (GE Healthcare) was used as the running buffer, and the measurement temperature was set to 25° C. Chips produced by immobilizing the antigen peptide by the amine coupling method to a Series S Sencor Chip CM5 (GE Healthcare), or alternatively, chips produced by allowing preliminarily biotinylated antigen peptides to interact with and immobilize onto a Series S Sensor Chip SA (certified) (GE Healthcare) were used. Antibodies of interest were captured onto an antigen peptide-immobilized chip, and allowed to interact to each FcγR diluted with running buffer. To regenerate and repeatedly use the chip, the antibodies captured on the chip were washed off by reacting 10 mM glycine-HCl, pH 1.5.
T2 sequence (P08637 17-208): as above

[3] = target: T1, FcγRIIb extracellular domain with …; experiment: SPR (Biacore), antibody captured on antigen peptide chip, FcγR as analyte; GpH7-A5/GpH7-B3/GpL16-k0 = 100
Protocol: as §1, §2

[4] = target: T2, FcγRIIIa extracellular domain with …; experiment: as above
Protocol: as §1, §2

Binder | He/Con_3a [1] | He_3a/2b (IIIa/IIb) [2] | He/Con_2b (relative binding activity) [3] | He/Con_3a (relative binding activity) [4]
B1 | 101% | – | – | –
B2 | 105% | – | – | –
B3 | 101% | – | – | –
B4 | 139% | – | – | –
B5 | 112% | – | – | –
B6 | 160% | – | – | –
B7 | 150% | – | – | –
B8 | 113% | – | – | –
B9 | 118% | – | – | –
B10 | 107% | – | – | –
B11 | 111% | – | – | –
B12 | – | 1.53 ratio | 67.1 % of control | 103 % of control
B13 | – | 1.26 ratio | 83.8 % of control | 105 % of control
B14 | – | 1.21 ratio | 81.4 % of control | 98.2 % of control
B15 | – | 1.59 ratio | 92.8 % of control | 147 % of control
B16 | – | 1.93 ratio | 52.4 % of control | 101 % of control
B17 | – | 1.32 ratio | 95 % of control | 125 % of control
B18 | – | 1.76 ratio | 80.5 % of control | 142 % of control
B19 | – | 1.21 ratio | 70.1 % of control | 84.6 % of control
B20 | – | 1.37 ratio | 76.1 % of control | 104 % of control
B21 | – | 1.77 ratio | 70.5 % of control | 124 % of control
B22 | – | 2.53 ratio | 12.5 % of control | 31.7 % of control

Source: patent US20150344570A1 (published 2015)
